According to patent US20230398228A1, “ERIBULIN-BASED ANTIBODY-DRUG CONJUGATES AND METHODS OF USE” (EISAI R&D MANAGEMENT CO., LTD., priority 2016, published 2023):

Assays:
[1] = DAR analysis by LC-MS (UPLC/ESI-MS, reverse-phase LC-MS); details: reverse-phase LC-MS
Method: ADCs were deglycosylated using PNGase F (New England BioLabs). G7 buffer (10 μL) and PNGase F (2 μL) were added to the mAb (90 μL, 1 mg/mL in DPBS). The reaction was incubated in a Discover microwave (CEM) for 2 cycles: (1) microwave power 10 W, 37° C., 10 min, followed by a 5-min pause; (2) microwave power 2 W, 37° C., 10 min. A portion of the sample was reduced by adding DTT to a final concentration of 20 mM, followed by incubation at 60° C. for 3 min. Samples were then analyzed using a Waters Acquity Ultra Performance Liquid Chromatography (UPLC) and quadrupole time of flight (Q-Tof) Premier mass spectrometer. Samples (0.5-2 μg each) were injected onto a MassPrep™ micro desalting column at 65° C., eluted from the column with a 5 min equilibration in 95% of mobile phase A, a 10 min gradient (5-90% B), and a 10 min re-equilibration in 95% of mobile phase A, at 0.05 mL/min. Mobile phase A was 0.1% formic acid in water. Mobile phase B was 0.1% formic acid in acetonitrile. The Q-Tof mass spectrometer was run in positive ion, V-mode with detection in the range of 500-4000 m/z. The source parameters were as follows: capillary voltage, 2.25 kV (intact antibody)-2.50 kV (reduced antibody); sampling cone voltage, 65.0 V (intact antibody) or 50.0 V (reduced antibody); source temperature, 100° C.; desolvation temperature, 250° C.; desolvation gas flow, 550 L/hr. The protein peak was deconvoluted using the MassLynx® MaxEnt 1 function. Relative intensities of each unconjugated, singly-conjugated, and multiply-conjugated heavy and light chain masses were combined to calculate the overall DAR using the formula:
2[[ILC+1+2(ILC+2)+3(ILC+3)+ . . . n(ILC+n)]/ΣILCtot]+2[[IHC+1+2(IHC+2)+3(IHC+3)+ . . . n(IHC+n)]/ΣIHCtot]
where ILC+1 is mass intensity of light chain conjugated with one cytotoxin, ILC+2 is mass intensity of light chain conjugated with two cytotoxins, etc. IHC are the intensities from the corresponding conjugated heavy chains, and ΣILCtot and ΣIHCtot are the combined intensities of all unconjugated and conjugated light chains and heavy chains, respectively.
DAR was also analyzed using an LC-MS method with a Waters Alliance HPLC with SQD/PDA detection. Samples were injected onto a Proteomix RP-1000 column ([…], 1000A, 4.6 mm×15 cm, Sepax) at 65° C., and eluted with a 3 min equilibration in 25% B, a 27 min linear gradient from 25%-55% B, a 5 min hold at 55% B, a 1 min change to 90% B, a 5 min hold at 90% B, a 1 min change back to 25% B, and a 5 min reequilibration at 25% B. Mobile phase A was 0.1% TFA in water, and mobile phase B was 0.1% TFA in acetonitrile. The elute was then split (10:1) into PDA and SQD detectors. The SQD detector was set up as ES positive, capillary voltage at 3.2 kV, cone voltage at 40 V, extractor at 3 V, and RF lens at 0.2 V, source temperature at 150° C., and desolvation temperature at 250° C. Mass data was acquired at 200-2000 m/z for 40 min, continuum mode, scan time 1 second. Data was analyzed and deconvoluted offline using MassLynx and MaxEnt1. DAR was calculated using the formula:
2[[AUCLC+1+2(AUCLC+2)+3(AUCLC+3)+ . . . n(AUCLC+n)]/[…]]+2[[AUCHC+1+2(AUCHC+2)+3(AUCHC+3)+ . . . n(AUCHC+n)]/ΣAUCHCtot]
where AUCLC+1 is the area under the curve of the light chain peak conjugated with one cytotoxin, AUCLC+2 is the area under the curve of the light chain peak conjugated with two cytotoxins, etc. AUCHC is the area under the curve of the corresponding heavy chains, and ΣAUCLCtot and ΣAUCHCtot are the combined area under the curve of all unconjugated and conjugated light chains and heavy chains, respectively.

DAR analysis by HIC-HPLC = experiment: DAR analysis by HIC-HPLC
Method: Samples were injected onto a TSKgel® Ether-5 PW, 7.5 mm ID×7.5 cm, 10 μM pore size, and eluted from the column with a 3 min equilibration in 100% of mobile phase A, a 15 min gradient (0-100% B), a 5 min hold in 100% B, a 1 min change to 100% A, and a 5 min re-equilibration in 100% of mobile phase A, at 0.7 mL/min. Mobile phase A was 25 mM sodium phosphate, 1.5 M ammonium sulfate, pH 7.0. Mobile phase B was 25 mM sodium phosphate, 25% isopropanol, pH 7.0. Detection was done at 280 nm (reference 320 nm). DAR was determined by the formula:
[AUC+1+2(AUC+2)+3(AUC+3)+ . . . n(AUC+n)]/ΣAUCtot]
where AUC+1 is the area under the curve for the mAb peak corresponding to ADC conjugated with one cytotoxin, AUC+2 is the area under the curve for the mAb peak corresponding to ADC conjugated with two cytotoxins, etc. ΣAUCtot is the combined area under the curve for all peaks.
DAR was analyzed using hydrophobic interaction HPLC (HIC-HPLC). Samples were injected onto a TSKgel® Butyl-NP5, 4.6 mm ID×3.5 cm, 2.5 μM nonporous size column (Tosoh Bioscience), and eluted with a 3 min equilibration in 100% of mobile phase A, a 15 min gradient (0-100% B), a 5 min hold in 100% B, a 1 min change to 100% A, and a 5 min re-equilibration in 100% of mobile phase A, at 0.7 mL/min. Mobile phase A was 25 mM sodium phosphate, 1.5 M ammonium sulfate, pH 7.0. […] DAR was determined by the formula: […]

NCI-H2110 cells = experiment: Crystal Violet cytotoxicity assay (Example 4), NCI-H2110; format: cell-based, human; details: mean of replicate experiments, read-out: Cytotoxicity IC50 (nM), NCI-H2110 (FR^med, MSLN^med)
Method: Test reagents were serial diluted 1:3 in 2 mL deep-well dilution plates, starting at 200 nM (10 dilutions total). […] Medium was then discarded. […] Plates were read at 570 nm. Data was analyzed using GraphPad Prism 6.

| Substance | DAR (LC-MS) [1] | DAR (HIC-HPLC) (DAR analysis by HIC-HPLC) | IC50 (NCI-H2110 cells) [nM] |
| --- | --- | --- | --- |
| MORAb009-PEG2-eribulin | 4.55 | 4.30 | 50 |
| MORAb009-PEG4-eribulin | 4.48 | 4.57 | 31.6 |
